# Results reported in patent US20110190483, “Stimulus-Responsive Apta Chelamers” (The Administrators of the Tulane Educational Fund, published 2011).
# Legend:
# Conditions in all cases: tags: Sigma Aldrich, from bovine pancreas; label: fluorescein on 5'-terminal dT; intramolecular antiparallel G4
# [1] = target: T1, trypsin (Bos taurus, UniProt P00760 P00760:24-246); assay: FP; preformed quadruplex, 25 mM KCl (20 mM elsewhere), 200 mM NaCl, 25 mM Hepes pH 7.4, 25 C; binding through small-molecule arms
# T1 sequence (P00760 24-246, one chain of several): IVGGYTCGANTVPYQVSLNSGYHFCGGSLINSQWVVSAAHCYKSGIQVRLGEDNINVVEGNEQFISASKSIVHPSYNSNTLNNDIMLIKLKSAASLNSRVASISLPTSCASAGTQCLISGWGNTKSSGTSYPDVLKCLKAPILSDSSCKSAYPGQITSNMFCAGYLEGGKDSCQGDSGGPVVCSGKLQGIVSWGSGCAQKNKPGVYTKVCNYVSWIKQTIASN
# Description: (§1) The preformed quadruplexes were then incubated with increasing concentrations of trypsin at 25° C. (25 mM KCl, 200 mM NaCl, 25 mM Hepes, pH 7.4) for 30 min. Preliminary fluorescence anisotropy studies were conducted to ascertain that equilibrium was reached after 30 min and that there was no significant quenching of the fluorescein emission. The anisotropy associated with the fluorescein emission was followed at 525 nm (excitation at 495 nm). The resultant binding isotherms (FIG. 14) were fitted using non-linear regression to a 1:1 binding stoichiometry. […] This dissociation constant is attributed to non-specific interactions between bovine trypsin and ODN 4, since trypsin (pI=10.5) is positively charged at pH=7.4 and thus can potentially associate with the negatively charged DNA backbone. Support for such non-specific interactions comes from incubation of trypsin with ODN 4 where the concentration of salts were decreased to only 5 mM KCl, 25 mM Hepes, pH 7.4 (see, e.g., FIG. 23).
# (§2) Immediately prior to each fluorescence polarization experiment, fresh stock solutions of trypsin were made in Hepes buffer (20 mM KCl, 200 mM NaCl, 25 mM Hepes, pH 7.4). Concentration of the trypsin in the stock solutions were determined using ultra-violet absorbance at 280 nm (ε=37669 M⁻¹cm⁻¹).
# [2] = target: T1, trypsin; assay: FP; low salt: 5 mM KCl, 25 mM Hepes pH 7.4; +/-0.3e-6
# Description: The results of FIG. 23 show fluorescence anisotropy titrations of AC 1 and negative control ODN 4 (2 nM), first exposed to quadruplex forming conditions followed by incubation with increasing concentrations of trypsin. These experiments were conducted under low-salt conditions (5 mM KCl, 25 mM Hepes, pH 7.4. The raw data is depicted by circles for AC 1 and diamonds (♦) for ODN 4. The lines represent non-linear fits to equation 2 (R²=0.99 for AC 1 and 0.98 for ODN 4).
# These findings are consistent with the fact that bovine trypsin is positively charged at pH=7.4 (pI of bovine trypsin is=10.5) and thus can potentially associate with the negatively charged ODN backbone, through non-specific interactions, under low-salt conditions.
# [3] = target: T1, trypsin; assay: FP; 25 mM KCl, 200 mM NaCl, 25 mM Hepes pH 7.4, 25 C; benzamidine arm only
# Description: as §1, §2
# [4] = target: T1, trypsin; assay: FP; 25 mM KCl, 200 mM NaCl, 25 mM Hepes pH 7.4, 25 C; iodophenylthiourea arm only
# Description: as §1, §2
binder,measurement,setting,value
"TTGGTTGGTGTGGTTGGT (structured_DNA, 5'-benzamidine arm via C10 spacer, 3'-iodophenylthiourea arm via C6 spacer) [AC 1 (ODN 1, Formula 3)]",Kd,[1],0.81 µM
same,Kd,[2],2.8 µM
"TTGGTTGGTGTGGTTGGT (structured_DNA, 5'-benzamidine arm via C10 spacer, no 3' arm) [ODN 2 (Formula 4)]",Kd,[3],29 µM
"TTGGTTGGTGTGGTTGGT (structured_DNA, 3'-iodophenylthiourea arm via C6 spacer, no 5' arm) [ODN 3 (Formula 5)]",Kd,[4],90 µM
